Reference: the supplement of paper PMC10567573

B1: CHMP4C (parent)
chain: TNIRLPNVPSSSLPAQPNRKPGMS

Variants of: B1
Assay: protein stability index of a GFP-peptide fusion (GPS, HEK-293T) (PSI 1-6); higher = more stable
Details: c terminus: a fixed tail appended
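Also: lentivirally expressed fusions sorted by FACS into six bins by GFP to DsRed ratio, PSI derived from sequencing read proportions per bin multiplied by bin number.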

| Variant | protein stability index |
| --- | --- |
| TNIRLPNVPSSSLPAQPARKPGMS | 4.45 |
| TNIRLPNVPSSSLPAQPFRKPGMS | 4.33 |
| TNIRLPNVPSSSLPAQPERKPGMS | 4.41 |
| TNIRLPNVPSSSLPAQPHRKPGMS | 4.85 |
| TNIRLPNVPSSSLPAQPCRKPGMS | 3.97 |
| TNIRLPNVPSSSLPAQPGRKPGMS | 4.25 |
| TNIRLPNVPSSSLPAQPDRKPGMS | 4.51 |
| TNIRLPNVPSSSLPAAPNRKPGMS | 4.7 |
| TNIRLPNVPSSSLPATPNRKPGMS | 4.53 |
| TNIRLPNVPSSSLPAWPNRKPGMS | 3.34 |
| TNIRLPNVPSSSLPAEPNRKPGMS | 4.69 |
| TNIRLPNVPSSSLPAVPNRKPGMS | 4.71 |
| TNIRLPNVPSSSLPAKPNRKPGMS | 4.03 |
| TNIRLPNVPSSSLPAYPNRKPGMS | 3.99 |
| TNIRLPNVPSSSLPADPNRKPGMS | 4.24 |
| TNIRLPNVPSSSLPACPNRKPGMS | 4.39 |
| TNIRLPNVPSSSLPARPNRKPGMS | 5.25 |
| TNIRLPNVPSSSLPAMPNRKPGMS | 3.7 |
| TNIRLPNVPSSSLPASPNRKPGMS | 4.91 |
| TNIRLPNVPSSSLPAIPNRKPGMS | 4.35 |
| TNIRLPNVPSSSLPAGPNRKPGMS | 4.51 |
| TNIRLPNVPSSSLPAHPNRKPGMS | 4.44 |
| TNIRLPNVPSSSLPAPPNRKPGMS | 4.94 |
| TNIRLPNVPSSSLPALPNRKPGMS | 4.32 |

| Variant | protein stability index |
| --- | --- |
| TNIRLPNVPSSSLPANPNRKPGMS | 4.73 |
| TNIRLPNVPSSSLPAFPNRKPGMS | 4.05 |
| TNIRLPNSPSSSLPAQPNRKPGMS | 4.49 |
| TNIRLPNYPSSSLPAQPNRKPGMS | 4.02 |
| TNIRLPNPPSSSLPAQPNRKPGMS | 5.05 |
| TNIRLPNLPSSSLPAQPNRKPGMS | 4.4 |
| TNIRLPNTPSSSLPAQPNRKPGMS | 4.69 |
| TNIRLPNRPSSSLPAQPNRKPGMS | 4.42 |
| TNIRLPNMPSSSLPAQPNRKPGMS | 4.61 |
| TNIRLPNQPSSSLPAQPNRKPGMS | 4.43 |
| TNIRLPNKPSSSLPAQPNRKPGMS | 4.63 |
| TNIRLPNNPSSSLPAQPNRKPGMS | 4.58 |
| TNIRLPNWPSSSLPAQPNRKPGMS | 4.19 |
| TNIRLPNVPSSSIPAQPNRKPGMS | 4.54 |
| TNIRLPNVPSSSEPAQPNRKPGMS | 4.25 |
| TNIRLPNVPSSSAPAQPNRKPGMS | 4.88 |
| TNIRLPNVPSSSKPAQPNRKPGMS | 4.46 |
| TNIRLPNVPSSSWPAQPNRKPGMS | 4.45 |
| TNIRLPNVPSSSNPAQPNRKPGMS | 4.52 |
| TNIRLPNVPSSSHPAQPNRKPGMS | 4.25 |
| TNIRLPNVPSSSGPAQPNRKPGMS | 4.27 |
| TNIRLPNVPSSSSPAQPNRKPGMS | 4.76 |
| TNIRLPNVPSSSTPAQPNRKPGMS | 5.11 |
| TNIRLPNVPSSSMPAQPNRKPGMS | 4.6 |

| Variant | protein stability index |
| --- | --- |
| TNIRLPNVPSSSCPAQPNRKPGMS | 4.47 |
| TNIRLPNVPSSSRPAQPNRKPGMS | 4.82 |
| TNIRLPNVPSSSVPAQPNRKPGMS | 4.88 |
| TNIRLPNVPSSSFPAQPNRKPGMS | 4.35 |
| TNIRLPNVPSSSDPAQPNRKPGMS | 4.4 |
| TNIRLPNVPSSSYPAQPNRKPGMS | 4.1 |
| TNIRLPNVPSSSQPAQPNRKPGMS | 4.09 |
| TNIRLPNVPSDSLPAQPNRKPGMS | 4.94 |
| TNIRLPNVPSNSLPAQPNRKPGMS | 4.19 |
| TNIRLPNVPSGSLPAQPNRKPGMS | 4.51 |
| TNIRLPNVPSKSLPAQPNRKPGMS | 4.49 |
| TNIRLPNVPSLSLPAQPNRKPGMS | 4.01 |
| TNIRLPNVPSRSLPAQPNRKPGMS | 4.79 |
| TNIRLPNVPSHSLPAQPNRKPGMS | 4.6 |
| TNIRLPNVPSWSLPAQPNRKPGMS | 3.97 |
| TNIRLPNVPSCSLPAQPNRKPGMS | 4.86 |
| TNIRLPNVPSASLPAQPNRKPGMS | 4.87 |
| TNIRLPNVPSISLPAQPNRKPGMS | 4.68 |
| TNIRLPNVPSESLPAQPNRKPGMS | 4.1 |
| TNIRLPNVPSVSLPAQPNRKPGMS | 4.13 |
| TNIRLPNVPSFSLPAQPNRKPGMS | 4.12 |
| TNIRLPNVPSTSLPAQPNRKPGMS | 3.48 |
| TNIRLPNVPSQSLPAQPNRKPGMS | 4.53 |
| TNIRLPNVPSPSLPAQPNRKPGMS | 4.61 |

| Variant | protein stability index |
| --- | --- |
| TNIRLPNVPSMSLPAQPNRKPGMS | 3.73 |
| TNIRLPNVPSYSLPAQPNRKPGMS | 4.28 |
| TNIRLPNVPSSRLPAQPNRKPGMS | 4.51 |
| TNIRLPNVPSSCLPAQPNRKPGMS | 4.18 |
| TNIRLPNVPSSHLPAQPNRKPGMS | 4.35 |
| TNIRLPNVPSSILPAQPNRKPGMS | 4.56 |
| TNIRLPNVPSSELPAQPNRKPGMS | 5.06 |
| TNIRLPNVPSSVLPAQPNRKPGMS | 4.8 |
| TNIRLPNVPSSDLPAQPNRKPGMS | 4.67 |
| TNIRLPNVPSSGLPAQPNRKPGMS | 4.27 |
| TNIRLPNVPSSLLPAQPNRKPGMS | 3.44 |
| TNIRLPNVPSSALPAQPNRKPGMS | 4.51 |
| TNIRLPNVPSSNLPAQPNRKPGMS | 4.68 |
| TNIRLPNVPSSFLPAQPNRKPGMS | 4.29 |
| TNIRLPNVPSSTLPAQPNRKPGMS | 4.07 |
| TNIRLPNVPSSYLPAQPNRKPGMS | 4.12 |
| TNIRLPNVPSSWLPAQPNRKPGMS | 3.25 |
| TNIRLPNVPSSKLPAQPNRKPGMS | 4.44 |
| TNIRLPNVPSSQLPAQPNRKPGMS | 4.66 |
| TNIRLPNVPSSMLPAQPNRKPGMS | 4.33 |
| TNIRLPNVPSSPLPAQPNRKPGMS | 4.34 |
| TNIRLPNVPLSSLPAQPNRKPGMS | 4.09 |
| TNIRLPNVPPSSLPAQPNRKPGMS | 4.39 |
| TNIRLPNVPMSSLPAQPNRKPGMS | 4.48 |

| Variant | protein stability index |
| --- | --- |
| TNIRLPNVPVSSLPAQPNRKPGMS | 4.2 |
| TNIRLPNVPCSSLPAQPNRKPGMS | 4.83 |
| TNIRLPNVPRSSLPAQPNRKPGMS | 4.06 |
| TNIRLPNVPASSLPAQPNRKPGMS | 4.62 |
| TNIRLPNVPKSSLPAQPNRKPGMS | 4.24 |
| TNIRLPNVPNSSLPAQPNRKPGMS | 3.58 |
| TNIRLPNVPFSSLPAQPNRKPGMS | 4.05 |
| TNIRLPNVPISSLPAQPNRKPGMS | 4.6 |
| TNIRLPNVPHSSLPAQPNRKPGMS | 4.76 |
| TNIRLPNVPGSSLPAQPNRKPGMS | 4.75 |
| TNIRLPNVPESSLPAQPNRKPGMS | 4.51 |
| TNIRLPNVPDSSLPAQPNRKPGMS | 4.84 |
| TNIRLPNVPTSSLPAQPNRKPGMS | 4.1 |
| TNIRLPNVPYSSLPAQPNRKPGMS | 4.22 |
| TNIRLPNVPQSSLPAQPNRKPGMS | 4.73 |
| TNIRLPNVPWSSLPAQPNRKPGMS | 4.46 |
| TNIRLPNVPSSSLPAQYNRKPGMS | 4.05 |
| TNIRLPNVPSSSLPAQGNRKPGMS | 4.71 |
| TNIRLPNVPSSSLPAQQNRKPGMS | 3.82 |
| TNIRLPNVPSSSLPAQNNRKPGMS | 4.72 |
| TNIRLPNVPSSSLPAQDNRKPGMS | 4.35 |
| TNIRLPNVPSSSLPAQINRKPGMS | 3.87 |
| TNIRLPNVPSSSLPAQCNRKPGMS | 3.76 |
| TNIRLPNVPSSSLPAQENRKPGMS | 4.96 |

| Variant | protein stability index |
| --- | --- |
| TNIRLPNVPSSSLPAQWNRKPGMS | 3.64 |
| TNIRLPNVPSSSLPAQVNRKPGMS | 4.67 |
| TNIRLPNVPSSSLPAQHNRKPGMS | 4.26 |
| TNIRLPNVPSSSLPAQLNRKPGMS | 4.14 |
| TNIRLPNVPSSSLPAQRNRKPGMS | 4.2 |
| TNIRLPNVPSSSLPAQTNRKPGMS | 4.75 |
| TNIRLPNVPSSSLPAQANRKPGMS | 3.6 |
| TNIRLPNVPSSSLPAQFNRKPGMS | 4.24 |
| TNIRLPNVPSSSLPAQMNRKPGMS | 4.56 |
| TNIRLPNVPSSSLPAQKNRKPGMS | 4.61 |
| TNIRLPNVPSSSLPAQSNRKPGMS | 4.21 |
| TNIRLPNVSSSSLPAQPNRKPGMS | 4.68 |
| TNIRLPNVYSSSLPAQPNRKPGMS | 3.62 |
| TNIRLPNVQSSSLPAQPNRKPGMS | 5.12 |
| TNIRLPNVKSSSLPAQPNRKPGMS | 4.78 |
| TNIRLPNVGSSSLPAQPNRKPGMS | 4.52 |
| TNIRLPNVTSSSLPAQPNRKPGMS | 4.55 |
| TNIRLPNVDSSSLPAQPNRKPGMS | 4.77 |
| TNIRLPNVASSSLPAQPNRKPGMS | 4.62 |
| TNIRLPNVWSSSLPAQPNRKPGMS | 3.53 |
| TNIRLPNVRSSSLPAQPNRKPGMS | 4.45 |
| TNIRLPNVHSSSLPAQPNRKPGMS | 4.49 |
| TNIRLPNVLSSSLPAQPNRKPGMS | 3.85 |
| TNIRLPNVCSSSLPAQPNRKPGMS | 4.33 |

| Variant | protein stability index |
| --- | --- |
| TNIRLPNVESSSLPAQPNRKPGMS | 4.94 |
| TNIRLPNVMSSSLPAQPNRKPGMS | 4.36 |
| TNIRLPNVFSSSLPAQPNRKPGMS | 4.22 |
| TNIRLPNVISSSLPAQPNRKPGMS | 4.3 |
| TNIRLPNVNSSSLPAQPNRKPGMS | 4.89 |
| TNIRLPNVVSSSLPAQPNRKPGMS | 4.71 |
| TNIRLPNVPSSSLSAQPNRKPGMS | 4.69 |
| TNIRLPNVPSSSLAAQPNRKPGMS | 4.14 |
| TNIRLPNVPSSSLKAQPNRKPGMS | 4.39 |
| TNIRLPNVPSSSLQAQPNRKPGMS | 4.98 |
| TNIRLPNVPSSSLFAQPNRKPGMS | 4.22 |
| TNIRLPNVPSSSLNAQPNRKPGMS | 4.41 |
| TNIRLPNVPSSSLHAQPNRKPGMS | 4.37 |
| TNIRLPNVPSSSLTAQPNRKPGMS | 4.39 |
| TNIRLPNVPSSSLVAQPNRKPGMS | 4.93 |
| TNIRLPNVPSSSLWAQPNRKPGMS | 4.01 |
| TNIRLPNVPSSSLIAQPNRKPGMS | 4.22 |
| TNIRLPNVPSSSLEAQPNRKPGMS | 4.7 |
| TNIRLPNVPSSSLRAQPNRKPGMS | 4.4 |
| TNIRLPNVPSSSLLAQPNRKPGMS | 4.19 |
| TNIRLPNVPSSSLGAQPNRKPGMS | 4.67 |
| TNIRLPNVPSSSLDAQPNRKPGMS | 4.5 |
| TNIRLPNVPSSSLCAQPNRKPGMS | 3.94 |
| TNIRLPNVPSSSLYAQPNRKPGMS | 3.67 |

| Variant | protein stability index |
| --- | --- |
| TNIRLPNVPSSSLMAQPNRKPGMS | 4.47 |
| TNIRLPNVPSSSLPWQPNRKPGMS | 4.01 |
| TNIRLPNVPSSSLPNQPNRKPGMS | 4.44 |
| TNIRLPNVPSSSLPMQPNRKPGMS | 4.16 |
| TNIRLPNVPSSSLPRQPNRKPGMS | 4.71 |
| TNIRLPNVPSSSLPYQPNRKPGMS | 4.26 |
| TNIRLPNVPSSSLPHQPNRKPGMS | 4.59 |
| TNIRLPNVPSSSLPCQPNRKPGMS | 4.54 |
| TNIRLPNVPSSSLPVQPNRKPGMS | 4.59 |
| TNIRLPNVPSSSLPFQPNRKPGMS | 4.21 |
| TNIRLPNVPSSSLPDQPNRKPGMS | 4.75 |
| TNIRLPNVPSSSLPIQPNRKPGMS | 4.34 |
| TNIRLPNVPSSSLPEQPNRKPGMS | 4.64 |
| TNIRLPNVPSSSLPGQPNRKPGMS | 4.69 |
| TNIRLPNVPSSSLPSQPNRKPGMS | 4.56 |
| TNIRLPNVPSSSLPTQPNRKPGMS | 4.55 |
| TNIRLPNVPSSSLPPQPNRKPGMS | 4.71 |
| TNIRLPNVPSSSLPQQPNRKPGMS | 5.06 |
| TNIRLPNVPSSSLPLQPNRKPGMS | 4.19 |
| TNIRLPNVPSSSLPKQPNRKPGMS | 4.58 |
